Source: paper PMC12892892

Molecular target: recombinant natriuretic peptide receptor B (NPR-B) (UniProt P20594)
Assay: SPR; recombinant NPR-B immobilised on a CM5 chip by amine coupling (10 ug/mL, 10 mM sodium acetate pH 4.5); CBD-CNP injected at 1.25, 2.5, 5.0, 10 and 20 uM in 50 mM Tris HCl pH 7.5, 200 mM NaCl, 1 mM CaCl2; Biacore X; single-cycle kinetics, 1:1 Langmuir model

UniProt P20594, sequence (P20594 23-458): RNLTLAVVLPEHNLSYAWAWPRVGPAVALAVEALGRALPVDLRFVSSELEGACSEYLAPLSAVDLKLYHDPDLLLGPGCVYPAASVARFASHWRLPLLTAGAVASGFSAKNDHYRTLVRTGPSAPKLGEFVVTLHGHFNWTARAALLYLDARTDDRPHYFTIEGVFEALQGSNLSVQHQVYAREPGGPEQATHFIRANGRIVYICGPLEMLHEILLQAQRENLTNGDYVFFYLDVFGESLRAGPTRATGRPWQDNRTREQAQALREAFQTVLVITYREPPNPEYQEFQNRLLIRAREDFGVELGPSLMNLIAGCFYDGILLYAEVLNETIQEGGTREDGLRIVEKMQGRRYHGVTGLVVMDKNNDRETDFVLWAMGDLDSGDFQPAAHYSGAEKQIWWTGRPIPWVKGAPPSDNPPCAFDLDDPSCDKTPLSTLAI

Substance: CBD-CNP (collagen-binding domain fused to C-type natriuretic peptide CNP-37) (from UniProt Q9X721 1003-1118)
- Kd: 495 µM
